Test results reported in paper PMC1514790, “Tomosyn Inhibits Synaptic Vesicle Priming in Caenorhabditis elegans” (PLoS Biology, 2006).

Molecular target: T1, C. elegans syntaxin-GST (UNC-64 cytoplasmic domain, aa 1-266) (C. elegans, UniProt O16000 1-266)
T1 construct: C. elegans syntaxin (UNC-64), cytoplasmic domain aa 1-266, lacking the TM domain, cloned into pGEX-2T; pGEX-2T normally puts GST at the N-terminus (surmise); also called GST syntaxin; source: recombinant, batch-purified with glutathione agarose under native conditions
T1 sequence (looked up): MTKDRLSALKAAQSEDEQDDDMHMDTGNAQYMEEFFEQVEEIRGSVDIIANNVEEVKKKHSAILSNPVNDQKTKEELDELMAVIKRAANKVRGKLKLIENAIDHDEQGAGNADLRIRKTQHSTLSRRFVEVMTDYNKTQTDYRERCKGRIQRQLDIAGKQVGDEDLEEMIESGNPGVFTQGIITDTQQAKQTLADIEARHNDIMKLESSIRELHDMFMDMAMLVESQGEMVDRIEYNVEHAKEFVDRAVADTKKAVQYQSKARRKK
Assay: pull-down; ~1.6 uM each of C. elegans syntaxin-GST, rat SNAP-25-His6 and His6-TOM-1Ct or His6-SNB-1, 2 h to overnight at 4 °C in D-buffer, isolated on glutathione agarose; Coomassie Blue staining, densitometry
Details: both partners purified

binding result: binds
B1: C. elegans synaptobrevin SNB-1 cytoplasmic domain (aa 1-88), His6T7-tagged (domain or fragment, UniProt O02495 1-88, looked up)
chain: MDAQGDAGAQGGSQGGPRPSNKRLQQTQAQVDEVVGIMKVNVEKVLERDQKLSQLDDRADALQEGASQFEKSAATLKRKYWWKNIKMM
notes: C. elegans synaptobrevin (SNB-1), cytoplasmic domain aa 1-88, lacking the TM domain, cloned into pRSETC; also called His6T7-tagged SNB-1; His6-SNB-1; source: recombinant, purified (Ni-NTA agarose)
